According to paper PMC5389561 (Nucleic Acids Research, 2016):
Blank lines part the entries; values can stand above or below the molecule they belong to.

Tests used:
[1] = target: Csm2 with a 6-His tag on the N-terminus (Csm2^H6N) (S. epidermidis RP62a); experiment: co-purification
[2] = target: recombinant Csm3 (untagged) (S. epidermidis); experiment: native gel or EMSA
native gel or EMSA = target: the molecule itself; experiment: native gel or EMSA
[3] = target: Csm5–Smt3 (Csm5 with an N-terminal His10Smt3 tag) (S. epidermidis); experiment: pull-down

- % Csm3 band intensity of the total band intensity of the purified complex [1]: 18%
Molecule: Csm3 (wild type, in the Cas10–Csm complex) (natural protein)

- % Csm3 band intensity of the total band intensity of the purified complex [1]: 12%
Molecule: Csm3 D179A (in the Cas10–Csm complex) (natural protein)

- stoichiometry N [2]: 6
Molecule: recombinant Csm3 (untagged) (natural protein)

- PNPase signal intensity as % of total signal in the eluate [3]: 5.9%
B1: recombinant polynucleotide phosphorylase (PNPase), untagged (enzyme, S. epidermidis RP62a, UniProt Q5HPR7 1-701, looked up)
chain: MSQEKKVFKTEWAGRSLTIETGQLAKQANGAVLVRYGDTVVLSTATASKEPRDGDFFPLTVNYEEKMYAAGKIPGGFKKREGRPGDEATLTARLIDRPIRPLFPKGYRHDVQIMNIVLSADPDCSPEMAAMIGSSMALSVSDIPFQGPIAGVNVGYIDGKYVINPSVADKEISRLDLEVAGHKDAVNMVEAGASEITESEMLEAIFFGHEEIKRLVAFQQEIIDHIQPIKQEFVPVERDEDLVEKVKSLTEDKGLKDTVLTFDKQQRDENLDALKEEVVGHFLDEEDPENETLVKEVYAILNDLIKEEVRRLIADEKIRPDGRKVDEIRPLESEVGLLPRAHGSGLFTRGQTQALSVLTLGALGDYQLIDGLGPEVEKRFMHHYNFPNFSVGETGPVRAPGRREIGHGALGERALRYIIPDTQDFPYTIRIVSEVLESNGSSSQASICGSTLALMDAGVPIKAPVAGIAMGLVTRDDSYTILTDIQGMEDALGDMDFKVAGTKDGITAIQMDIKIDGLTREVIEEALEQARQGRLAIMDHMLHTIEQPREELSAYAPKVVTMSINPDKIRDVIGPGGKKINEIIDETGVKLDIEQDGTIFIGAVDQAMINRAKEIIEDITREAEVGQVYHAKVKRIEKYGAFVELFPGKDALLHISQISQERINKVEDVLKIGDTIEVKITEIDKQGRVNASHKVLEQSKN
- stoichiometry N (native gel or EMSA): 3
